Reference: the RNAGym collection of RNA variant scans (doi:10.1073/pnas.2313332121)
Variants at the floor of the assay were thinned out.

B1: TPR 5TU (parent)
chain: GGAUCUUCUCGAUCUAACAAAAAAGACAAAUCUGCCACAAAGCUUGAGAGCAUCUUCGGAUGCAGAGGCGGCAGCCUUCGGUGGCGCGAUAGCGCCAACGUUCUCAACUAUGACACGCAAAACGCGUGCUCCGUUGAAUGGAGUUUAUCAUG

Variants of: B1
Experiment: polymerase ribozyme fitness, log enrichment relative to wild type (log ratio); higher = more active; in vitro selection for triplet polymerase activity
Method in brief: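 Mutant libraries for each subunit of a heterodimeric triplet polymerase ribozyme were made by PCR and then transcribed. Each library underwent one round of in vitro selection in triplicate: annealing with a biotinylated primer, the partner subunit and triplets, frozen incubation at −7 °C, gel excision of extended constructs, streptavidin-bead capture and RT-PCR. Input and output libraries were Illumina-sequenced, and only genotypes with ≥10 input reads and ≥1 read per output were kept. Fitness is the logarithm, base 2, of genotype enrichment over wild-type enrichment, computed from inverse-variance-weighted replicate averages.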

Variant	polymerase ribozyme fitness (log ratio)
A12U G84C	-2.67
A12U G84U	-1.97
A12U A91U	≤ -4.2
A12U A91G	-2.26
U13C C27U G50C G92C	-4.02
U13C C51G C54G C75U G83U	≤ -4.2
A12U A17G C57A A98U	-0.729
U13A C38U A60C G83C	≤ -4.2
U13G C14G U31A A41C G86A U90G G100A C131A	≤ -4.2
A12U U55G A60U G83C A137U G141U	≤ -4.2
U13C G59C U61G C79U G84A C132A	-4.17
A12U U13A A52C C87A G94U U134A A138U	≤ -4.2
A12U C87G	-4.2
A12U C87A	-4.15
U13G A28G U53A A64U G141U U145G G152A	≤ -4.2
A12U A17U A22C G34C U55A U56A C57U A64C C95U	≤ -4.2
U13G C36U A47U G84A A122G A138U	≤ -4.2
U13C U44A U56A C79U C93G C95U A115C G141U	≤ -4.2
A12U A21U C38A A106U C116A A119G	-3.18
U13G A21C G48U	-1.33
U13A A22U U53A G62C A64U U90A A91C C103A A106G C108U G126C	≤ -4.2
U13C A16G C18A C35A C87U	≤ -4.2
A12U G81C G84A A115U	≤ -4.2
U13A G25U C85G	-3.79

Variant	polymerase ribozyme fitness (log ratio)
U13A C57G C96A	-1.81
A12U C87A C103G U135G	≤ -4.2
U13C G58C G67A G94C	≤ -4.2
U13A A52G U82A	-0.721
A12U C35A U44A G92C U127A C129G G143A U151C	≤ -4.2
U13C U53A A91U A107U	≤ -4.2
U13G A41C U55G G94C C116A G143U U151G	≤ -4.2
U13A G34U A49C G140A A142U	≤ -4.2
U13A A16C A91G	-2.83
U13A C32G A37U A52G G94A G128A U146G	≤ -4.2
A12U A26C C35A U55C G59C C76A C93A U111C A138G U144A	≤ -4.2
U13G A47C G88C A91U C105U	≤ -4.2
U13G A40C C96G A119G	-1.98
U13A A30U U33G G46A G86A A91U A119G	≤ -4.2
A12U A17G C35A U44A A47C A52U C95U G152U	≤ -4.2
A12U U45A U55G A66G U78C G88U C95G A137U	≤ -4.2
A12U C87U A97U	-0.917
A12G U56G C85G	-2.2
U13A G34U G94A U102G	≤ -4.2
U13A G94C	-1.19
A12U U55A C87U A119U U127C	-3.82
A12U C36G G86A A110C U139A	-4.11
A12U U15C A49C G88C C123U G143C	≤ -4.2
U13G A37U C43U A52C A73C G84C U109C G140A	≤ -4.2

Variant	polymerase ribozyme fitness (log ratio)
A12U U31C C32U A40U C57G A73G C75A G88A G152A	≤ -4.2
A12U A37G C69G A122C G126A A150G	≤ -4.2
A12U A16U A17U C27U A47U G48A C76G G86U U145A G152U	≤ -4.2
U13C C87A	≤ -4.2
A12U U102G	-3.28
U13G C14G C57A G71A U101G G124A G141A	≤ -4.2
U13G C96A	-0.681
U13A U55G C85U A121G	-1.11
U13A C51U C54A G86U C116U A120G	≤ -4.2
U13C A40C G48C G50C G83U	≤ -4.2
U13G A52G	-1.06
U13C A16U	-0.079
A12G U45G C69G A91C A115G G133A G143U	≤ -4.2
A12U C35A C79U C96A A110G C118U C125A	≤ -4.2
A12U C38G G59U	-0.492
A12U G42C C51U C93U C123A G124U	≤ -4.2
A12G U77C	-3.98
U13G A106G	-1.5
U13C A21C	0.934
U13G A26G U31G C51G G88C	≤ -4.2
U13C C27A A49C U56A A97U	≤ -4.2
A12U A23C C54U C116G A147C U151A	≤ -4.2
U13A C18G A30G G65U A91G A115C C118U U144G	≤ -4.2
A12G U55A U61G C125G	-3.62

Variant	polymerase ribozyme fitness (log ratio)
A12U G94A	-1.47
U13A A40U U55A C129A	≤ -4.2
A12U A49C G100U U146G	≤ -4.2
U13G A21U A22C U82G G92U A98C C116U	-1.59
U13C C38U G86A G124C	-1.98
U13C C14U U77G G84U U145G U148A	≤ -4.2
U13A G50A U55A A89C	-3.57
A12U C54U G86C	-3.04
A12U C76G C85U C103A G126C U145G	≤ -4.2
A12U	-0.161
U13C A37G G126C	-1.85
U13C C51A G83C A89G C125U	≤ -4.2
A12U G46A C75U C87A C99U G117A	≤ -4.2
U13A A52G U56A C75U U78A C87U C93A G136C C149A	≤ -4.2
U13A U33A A52U A89G	≤ -4.2
A12U C14U G50C A60G G74U C85U	≤ -4.2
A12U A23C C54G U55G C79A G83U G92A G124C U145A	≤ -4.2
U13C A24C U45G G84U U135C	≤ -4.2
U13A A39U C54G C79U G81U G94U U139C G140U	≤ -4.2
A12U A22U C27U A40G C69A U78A G94A A115C A119U G124A	≤ -4.2
A12U A21C G70C G84U C132A G136A A142U	≤ -4.2
A12U A40U C85U U145C	-1.21
A12U A20C G86U G100U U151A	≤ -4.2
U13C C93G C99A U127C	≤ -4.2

Variant	polymerase ribozyme fitness (log ratio)
U13A A73G G84A	-0.387
U13C U33A C54A C95G A98C C99A A150G	≤ -4.2
A12U C96U U144G	0.0703
A12U U55A G59U A60G G94A	-0.00322
A12U U31G A40C A49C A60G C93U	≤ -4.2
A12U A52C G84A A98G	-2.65
U13C A16G A19C A28U C38U U55G A73C U77C C95G	≤ -4.2
A12G U56A U144A	0.103
U13C C93A C96A	-3.63
A12U A39C A52G C57G	-4.2
A12U A21U A39C G92A U109G A137G	≤ -4.2
U13A A52G G68C G80A U82G C95G C105U C114A U145G	≤ -4.2
U13C A52G U102C C118G	-3.18
U13A C18G	-0.831
A12U G48A C96A	-2.05
A12U U82C G86C	≤ -4.2
U13A C85U A107U C125A G126C	≤ -4.2
A12U A20U G81A C87A C96A U102C C125U	≤ -4.2
U13G A19U A49U C54G A89G C93U U127C	≤ -4.2
U13G C36A C85U A115U U139C	≤ -4.2
A12U C27U A73U C96G A97U A107G	≤ -4.2
A12G U53A G68A A107U	≤ -4.2
U13G C51G A91C	≤ -4.2
A12U A16C A28G C38U A41U G86A A150G	≤ -4.2

Variant	polymerase ribozyme fitness (log ratio)
U13A A20U A28C C93U G136C A137U	≤ -4.2
A12U G71A A107C	≤ -4.2
A12U G58A	-0.217
U13G C35U C72U C96G C105U G133C	≤ -4.2
A12U C85U A97G C116U	-1.53
A12U A22G A29C G42U C87U C93A	≤ -4.2
U13A A41C A91U C96U	≤ -4.2
U13C U61G G84A A91G	-3.86
U13C C38G U53A U82G G92A C105G C114U G128C U151C	≤ -4.2
A12U U55G A142C	-1.46
U13G A40U A60C	≤ -4.2
A12U U56G A91G	-2.61
U13A A28U C36U G81C	≤ -4.2
U13G A122C A142C	-2.05
A12U A16G A30U C79G C95A U144A	≤ -4.2
A12U C85G	-1.91
A12U C85U	-0.742
A12U C85A	-1.85
A12U A20G U56A C75G A121G	≤ -4.2
A12U U56A A115G	-2.11
A12U A41C G83C C118G G133U	≤ -4.2
U13C C32A A49C	≤ -4.2
U13C U90G C116A	-4.13
A12U G92A A98G C125G G128U	≤ -4.2

Variant	polymerase ribozyme fitness (log ratio)
A12U C54U G59C A60G U144G	-0.245
U13G A41C C96U A107U C131A G133A U146C	≤ -4.2
A12U G84C A142G	-3.93
U13A G46U G59A A91G C95U G117A	≤ -4.2
U13C C14G C43G A91G A106U U109G A138G	-4.06
A12U G25U A37G A47C U77A C95G G141A	≤ -4.2
A12G U145A	1.33
A12U A26C C36U	-3.95
U13A C32U G67C C85A C105U G140A	≤ -4.2
A12U A28U U44G C93A U102A	≤ -4.2
A12U C38U G83U	-0.788
A12U C18U A19G U56G A60U C76G C108U C114G	≤ -4.2
U13G A20C U55G U90G C95G C105A C116G G124A	≤ -4.2
A12U A41U G65C G70C C79U	≤ -4.2
U13G A41G C54G G81A C96G C118U	≤ -4.2
A12U C85G C123U U127A	≤ -4.2
A12U C63A U78G C95U	≤ -4.2
U13C A17C G67C U77G A89C A120C	≤ -4.2
U13G A47G U55A C87U C96U U139G	≤ -4.2
U13G C96U A97U A137U	≤ -4.2
A12G U61A C76A A106G	-3.97
A12U C87A A113U A115C U148A	≤ -4.2
U13C A29U A52C G86C A107C U109A	≤ -4.2
